Starred links: 1 amine or outer side, 2 acyl side, 3 side chain; linkers in the order of their positions; H or OH if unused. Non-standard residues stand in square brackets, D forms with d. Groups on a side chain read outwards from the residue. No end group written: not given here. *: point of attachment. C20 diacid = O=C(O)CCCCCCCCCCCCCCCCCCC(=O)*; αMePhe(2-F) = C[C@](N)(Cc1ccccc1F)C(=O)O; γGlu = O=C(O)[C@H](CCC(=O)[*:2])N[*:1]; αMeF = C[C@](N)(Cc1ccccc1)C(=O)O; 4Pal = N[C@@H](Cc1ccncc1)C(=O)O; αMeL = CC(C)C[C@](C)(N)C(=O)O; AEEA = NCCOCCOCC(=O)O; Aib = CC(C)(N)C(=O)O
T1: human glucose-dependent insulinotropic polypeptide (GIP) receptor (human), P48546
T1 chain: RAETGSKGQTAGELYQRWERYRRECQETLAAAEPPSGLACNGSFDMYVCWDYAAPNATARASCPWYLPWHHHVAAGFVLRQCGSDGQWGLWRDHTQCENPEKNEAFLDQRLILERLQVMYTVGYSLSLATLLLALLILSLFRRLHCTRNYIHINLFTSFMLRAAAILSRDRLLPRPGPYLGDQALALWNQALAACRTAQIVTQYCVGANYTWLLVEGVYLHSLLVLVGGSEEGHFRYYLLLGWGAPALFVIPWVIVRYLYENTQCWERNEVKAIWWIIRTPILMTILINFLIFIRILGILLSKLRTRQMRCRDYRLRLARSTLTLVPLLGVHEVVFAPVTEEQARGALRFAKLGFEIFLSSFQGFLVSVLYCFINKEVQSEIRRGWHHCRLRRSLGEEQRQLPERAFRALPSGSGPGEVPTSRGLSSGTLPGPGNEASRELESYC

T2: human GLP-1 receptor (human), P43220
T2 chain: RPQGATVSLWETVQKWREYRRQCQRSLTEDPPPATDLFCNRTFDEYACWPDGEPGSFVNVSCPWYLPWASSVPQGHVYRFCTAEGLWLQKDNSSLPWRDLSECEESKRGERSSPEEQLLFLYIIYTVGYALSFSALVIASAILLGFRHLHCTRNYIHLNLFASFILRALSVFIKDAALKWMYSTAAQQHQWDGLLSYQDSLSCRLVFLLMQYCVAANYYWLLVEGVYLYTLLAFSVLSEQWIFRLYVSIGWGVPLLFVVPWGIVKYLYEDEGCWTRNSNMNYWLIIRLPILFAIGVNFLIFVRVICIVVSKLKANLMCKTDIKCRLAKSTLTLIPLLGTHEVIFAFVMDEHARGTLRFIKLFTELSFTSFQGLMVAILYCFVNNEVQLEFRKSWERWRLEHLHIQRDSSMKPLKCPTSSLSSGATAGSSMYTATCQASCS


Key:
[1] = biological target: T1, human glucose-dependent insulinotropic …; experiment: SPA, displacement of [125I]-GIP from hGIPR membranes, 0.1% bacitracin
[2] = biological target: human glucagon receptor (human), P47871; experiment: SPA, displacement of [125I]-Gcg from hGcgR membranes, 0.1% bacitracin
Sequence of human glucagon receptor (human), P47871 (P47871 26-477): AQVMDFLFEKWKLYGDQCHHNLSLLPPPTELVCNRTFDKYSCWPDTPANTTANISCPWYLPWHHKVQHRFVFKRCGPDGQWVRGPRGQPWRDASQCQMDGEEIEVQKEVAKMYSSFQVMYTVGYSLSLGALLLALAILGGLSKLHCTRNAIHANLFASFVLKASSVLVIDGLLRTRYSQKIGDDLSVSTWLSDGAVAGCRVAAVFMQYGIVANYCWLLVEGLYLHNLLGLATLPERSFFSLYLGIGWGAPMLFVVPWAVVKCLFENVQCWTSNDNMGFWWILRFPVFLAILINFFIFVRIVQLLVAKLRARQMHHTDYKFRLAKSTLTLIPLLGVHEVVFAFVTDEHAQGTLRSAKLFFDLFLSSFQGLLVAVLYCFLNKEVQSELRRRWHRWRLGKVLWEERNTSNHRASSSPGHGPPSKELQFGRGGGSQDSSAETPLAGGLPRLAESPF

[3] = biological target: T2, human GLP-1 receptor (human), P43220; experiment: SPA, displacement of [125I]-GLP-1 from hGLP-1R membranes, 0.1% bacitracin

Binder | Ki [1] [nM] | Ki [2] [nM] | Ki [3] [nM]
H-Y[Aib]EGT[αMePhe(2-F)]ISDYSILLDKIHQ[Aib]DFVE[4Pal]K([AEEA-AEEA-γGlu-C20 diacid])LEGGPSSGAPPPS-NH2 (SMILES CC[C@H](C)[C@H](NC(=O)[C@H](CO)NC(=O)[C@H](Cc1ccc(O)cc1)NC(=O)[C@H](CC(=O)O)NC(=O)[C@H](CO)NC(=O)[C@@H](NC(=O)[C@](C)(Cc1ccccc1F)NC(=O)[C@@H](NC(=O)CNC(=O)[C@H](CCC(=O)O)NC(=O)C(C)(C)NC(=O)[C@@H](N)Cc1ccc(O)cc1)[C@@H](C)O)[C@@H](C)CC)C(=O)N[C@@H](CC(C)C)C(=O)N[C@@H](CC(C)C)C(=O)N[C@@H](CC(=O)O)C(=O)N[C@@H](CCCCN)C(=O)N[C@H](C(=O)N[C@@H](Cc1c[nH]cn1)C(=O)N[C@@H](CCC(N)=O)C(=O)NC(C)(C)C(=O)N[C@@H](CC(=O)O)C(=O)N[C@@H](Cc1ccccc1)C(=O)N[C@H](C(=O)N[C@@H](CCC(=O)O)C(=O)N[C@@H](Cc1ccncc1)C(=O)N[C@@H](CCCCNC(=O)COCCOCCNC(=O)COCCOCCNC(=O)CC[C@H](NC(=O)CCCCCCCCCCCCCCCCCCC(=O)O)C(=O)O)C(=O)N[C@@H](CC(C)C)C(=O)N[C@@H](CCC(=O)O)C(=O)NCC(=O)NCC(=O)N1CCC[C@H]1C(=O)N[C@@H](CO)C(=O)N[C@@H](CO)C(=O)NCC(=O)N[C@@H](C)C(=O)N1CCC[C@H]1C(=O)N1CCC[C@H]1C(=O)N1CCC[C@H]1C(=O)N[C@@H](CO)C(N)=O)C(C)C)[C@@H](C)CC) [Example 119] | 0.129 | 68.8 | 723
Y[Aib]EGT[αMeF]ISDYSIALDKIHQ[Aib]EFVNYK([AEEA-AEEA-γGlu-C20 diacid])LAGGPSSGAPPPS-NH2 (N-terminus assumed; SMILES CC[C@H](C)[C@H](NC(=O)[C@H](CO)NC(=O)[C@H](Cc1ccc(O)cc1)NC(=O)[C@H](CC(=O)O)NC(=O)[C@H](CO)NC(=O)[C@@H](NC(=O)[C@](C)(Cc1ccccc1)NC(=O)[C@@H](NC(=O)CNC(=O)[C@H](CCC(=O)O)NC(=O)C(C)(C)NC(=O)[C@@H](N)Cc1ccc(O)cc1)[C@@H](C)O)[C@@H](C)CC)C(=O)N[C@@H](C)C(=O)N[C@@H](CC(C)C)C(=O)N[C@@H](CC(=O)O)C(=O)N[C@@H](CCCCN)C(=O)N[C@H](C(=O)N[C@@H](Cc1c[nH]cn1)C(=O)N[C@@H](CCC(N)=O)C(=O)NC(C)(C)C(=O)N[C@@H](CCC(=O)O)C(=O)N[C@@H](Cc1ccccc1)C(=O)N[C@H](C(=O)N[C@@H](CC(N)=O)C(=O)N[C@@H](Cc1ccc(O)cc1)C(=O)N[C@@H](CCCCNC(=O)COCCOCCNC(=O)COCCOCCNC(=O)CC[C@H](NC(=O)CCCCCCCCCCCCCCCCCCC(=O)O)C(=O)O)C(=O)N[C@@H](CC(C)C)C(=O)N[C@@H](C)C(=O)NCC(=O)NCC(=O)N1CCC[C@H]1C(=O)N[C@@H](CO)C(=O)N[C@@H](CO)C(=O)NCC(=O)N[C@@H](C)C(=O)N1CCC[C@H]1C(=O)N1CCC[C@H]1C(=O)N1CCC[C@H]1C(=O)N[C@@H](CO)C(N)=O)C(C)C)[C@@H](C)CC) [Example 97] | 0.0249 | 77.5 | 570
Y[Aib]EGT[αMePhe(2-F)]ISDYSIALDKIHQ[Aib]EFVNYK([AEEA-AEEA-γGlu-C20 diacid])LEGGPSSGAPPPS-NH2 (N-terminus assumed; SMILES CC[C@H](C)[C@H](NC(=O)[C@H](CO)NC(=O)[C@H](Cc1ccc(O)cc1)NC(=O)[C@H](CC(=O)O)NC(=O)[C@H](CO)NC(=O)[C@@H](NC(=O)[C@](C)(Cc1ccccc1F)NC(=O)[C@@H](NC(=O)CNC(=O)[C@H](CCC(=O)O)NC(=O)C(C)(C)NC(=O)[C@@H](N)Cc1ccc(O)cc1)[C@@H](C)O)[C@@H](C)CC)C(=O)N[C@@H](C)C(=O)N[C@@H](CC(C)C)C(=O)N[C@@H](CC(=O)O)C(=O)N[C@@H](CCCCN)C(=O)N[C@H](C(=O)N[C@@H](Cc1c[nH]cn1)C(=O)N[C@@H](CCC(N)=O)C(=O)NC(C)(C)C(=O)N[C@@H](CCC(=O)O)C(=O)N[C@@H](Cc1ccccc1)C(=O)N[C@H](C(=O)N[C@@H](CC(N)=O)C(=O)N[C@@H](Cc1ccc(O)cc1)C(=O)N[C@@H](CCCCNC(=O)COCCOCCNC(=O)COCCOCCNC(=O)CC[C@H](NC(=O)CCCCCCCCCCCCCCCCCCC(=O)O)C(=O)O)C(=O)N[C@@H](CC(C)C)C(=O)N[C@@H](CCC(=O)O)C(=O)NCC(=O)NCC(=O)N1CCC[C@H]1C(=O)N[C@@H](CO)C(=O)N[C@@H](CO)C(=O)NCC(=O)N[C@@H](C)C(=O)N1CCC[C@H]1C(=O)N1CCC[C@H]1C(=O)N1CCC[C@H]1C(=O)N[C@@H](CO)C(N)=O)C(C)C)[C@@H](C)CC) [Example 95] | 0.0255 | 85 | 832
Y[Aib]EGT[αMePhe(2-F)]ISDYSIALDKIHQ[Aib]EFVNYK([AEEA-AEEA-γGlu-C20 diacid])LAGGPSSGAPPPS-NH2 (N-terminus assumed; SMILES CC[C@H](C)[C@H](NC(=O)[C@H](CO)NC(=O)[C@H](Cc1ccc(O)cc1)NC(=O)[C@H](CC(=O)O)NC(=O)[C@H](CO)NC(=O)[C@@H](NC(=O)[C@](C)(Cc1ccccc1F)NC(=O)[C@@H](NC(=O)CNC(=O)[C@H](CCC(=O)O)NC(=O)C(C)(C)NC(=O)[C@@H](N)Cc1ccc(O)cc1)[C@@H](C)O)[C@@H](C)CC)C(=O)N[C@@H](C)C(=O)N[C@@H](CC(C)C)C(=O)N[C@@H](CC(=O)O)C(=O)N[C@@H](CCCCN)C(=O)N[C@H](C(=O)N[C@@H](Cc1c[nH]cn1)C(=O)N[C@@H](CCC(N)=O)C(=O)NC(C)(C)C(=O)N[C@@H](CCC(=O)O)C(=O)N[C@@H](Cc1ccccc1)C(=O)N[C@H](C(=O)N[C@@H](CC(N)=O)C(=O)N[C@@H](Cc1ccc(O)cc1)C(=O)N[C@@H](CCCCNC(=O)COCCOCCNC(=O)COCCOCCNC(=O)CC[C@H](NC(=O)CCCCCCCCCCCCCCCCCCC(=O)O)C(=O)O)C(=O)N[C@@H](CC(C)C)C(=O)N[C@@H](C)C(=O)NCC(=O)NCC(=O)N1CCC[C@H]1C(=O)N[C@@H](CO)C(=O)N[C@@H](CO)C(=O)NCC(=O)N[C@@H](C)C(=O)N1CCC[C@H]1C(=O)N1CCC[C@H]1C(=O)N1CCC[C@H]1C(=O)N[C@@H](CO)C(N)=O)C(C)C)[C@@H](C)CC) [Example 98] | 0.0195 | 38.4 | 311
Y[Aib]EGTFISDYSI[αMeL]LDKIHQ[Aib]DFVEYK([AEEA-AEEA-γGlu-C20 diacid])LEAGPSSGAPPPS-NH2 (N-terminus assumed; SMILES CC[C@H](C)[C@H](NC(=O)[C@H](CCCCN)NC(=O)[C@H](CC(=O)O)NC(=O)[C@H](CC(C)C)NC(=O)[C@](C)(CC(C)C)NC(=O)[C@@H](NC(=O)[C@H](CO)NC(=O)[C@H](Cc1ccc(O)cc1)NC(=O)[C@H](CC(=O)O)NC(=O)[C@H](CO)NC(=O)[C@@H](NC(=O)[C@H](Cc1ccccc1)NC(=O)[C@@H](NC(=O)CNC(=O)[C@H](CCC(=O)O)NC(=O)C(C)(C)NC(=O)[C@@H](N)Cc1ccc(O)cc1)[C@@H](C)O)[C@@H](C)CC)[C@@H](C)CC)C(=O)N[C@@H](Cc1c[nH]cn1)C(=O)N[C@@H](CCC(N)=O)C(=O)NC(C)(C)C(=O)N[C@@H](CC(=O)O)C(=O)N[C@@H](Cc1ccccc1)C(=O)N[C@H](C(=O)N[C@@H](CCC(=O)O)C(=O)N[C@@H](Cc1ccc(O)cc1)C(=O)N[C@@H](CCCCNC(=O)COCCOCCNC(=O)COCCOCCNC(=O)CC[C@H](NC(=O)CCCCCCCCCCCCCCCCCCC(=O)O)C(=O)O)C(=O)N[C@@H](CC(C)C)C(=O)N[C@@H](CCC(=O)O)C(=O)N[C@@H](C)C(=O)NCC(=O)N1CCC[C@H]1C(=O)N[C@@H](CO)C(=O)N[C@@H](CO)C(=O)NCC(=O)N[C@@H](C)C(=O)N1CCC[C@H]1C(=O)N1CCC[C@H]1C(=O)N1CCC[C@H]1C(=O)N[C@@H](CO)C(N)=O)C(C)C) [Example 117] | 0.0722 | 685 | 591
